This note sets out measurements from publication PMC12422955.

The test deals with recombinant full-length NOE1–mScarlet-His (rat) (UniProt Q62609). As to the kind of experiment: SEC; FSEC, Superose 6 calibrated with mass markers; 5 nM full-length NOE1–mScarlet with 5–150 nM GluA4, or 1 nM with 1–100 nM CP-AMPARs; mScarlet fluorescence. On the technique in general: In gel filtration, larger molecules generally elute earlier.
Chain of recombinant full-length NOE1–mScarlet-His (rat) (Q62609 25-485): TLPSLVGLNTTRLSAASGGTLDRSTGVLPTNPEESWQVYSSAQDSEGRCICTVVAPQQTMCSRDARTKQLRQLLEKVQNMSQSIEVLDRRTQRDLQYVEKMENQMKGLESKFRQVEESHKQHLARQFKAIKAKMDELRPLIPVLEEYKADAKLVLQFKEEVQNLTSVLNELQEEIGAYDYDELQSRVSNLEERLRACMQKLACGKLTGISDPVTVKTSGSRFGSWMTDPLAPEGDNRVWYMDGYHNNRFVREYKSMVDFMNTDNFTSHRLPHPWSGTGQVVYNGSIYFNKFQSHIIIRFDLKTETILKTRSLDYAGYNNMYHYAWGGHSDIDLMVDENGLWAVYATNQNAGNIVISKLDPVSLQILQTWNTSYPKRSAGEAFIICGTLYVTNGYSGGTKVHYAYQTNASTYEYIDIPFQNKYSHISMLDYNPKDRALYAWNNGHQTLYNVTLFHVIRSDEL

On to “native GluA1-containing CP-AMPARs purified from rat cerebellum (from UniProt P19490 19-907; P19493 21-902) (complex)”, for which the stoichiometry N (receptors per NOE1 tetramer) came to 2.
